Experimental data taken from IntAct's records for PubMed 17129783.

B1: Kinetochore protein ndc-80 (Caenorhabditis elegans), Q17635 (parent)
chain: MFGDRRKTGGLNLNGRASIAITPTKRFTDYTGSTSVRKTDARPSLSQPRVSLFNTKNSSVAPRDVKSLVSLNGSKIYNFLVEYESSDAPSEQLIMKPRGKNDFIACFELIYQHLSKDYEFPRHERIEEEVSQIFKGLGYPYPLKNSYYQPMGSSHGYPHLLDALSWLIDIIRINSAVSEDTQNILFGDFMEQGKAQEKTLNYAWMTSTFRDYTNDRKAAENPSSSYWDDTKHRLRKYFEQSNEFEDMTKTAASALEMLNYECDEIEADKGNEASLKEEISRIRDDIRKAKDYLEQNLHVKQHMEKELAMVKSEQEEKISENEKVQKMVDDLKNKIELQKQIHGLTGKEVRQMNLDNNKDKEVVLEIQSELDRLSKETWKLKDEDFFKEQKSKFIHLAEQIMKILSGLNIQMNLEPLRAPTNERDLKDYWETLNKIWVPEISRQLHQRKLELETEQSRFSNKAVTAEERIQIQSETLCEAKKNEAREERIRRNERDSWKDARKHIEQRYEQLLNEKEVLLKQMKLDGSLEKEIEDETARMSATGEEHIQKRSQLEAGIRQILDLMVVEIAEIENKKIGFHVQCAGIEKAVL
partner: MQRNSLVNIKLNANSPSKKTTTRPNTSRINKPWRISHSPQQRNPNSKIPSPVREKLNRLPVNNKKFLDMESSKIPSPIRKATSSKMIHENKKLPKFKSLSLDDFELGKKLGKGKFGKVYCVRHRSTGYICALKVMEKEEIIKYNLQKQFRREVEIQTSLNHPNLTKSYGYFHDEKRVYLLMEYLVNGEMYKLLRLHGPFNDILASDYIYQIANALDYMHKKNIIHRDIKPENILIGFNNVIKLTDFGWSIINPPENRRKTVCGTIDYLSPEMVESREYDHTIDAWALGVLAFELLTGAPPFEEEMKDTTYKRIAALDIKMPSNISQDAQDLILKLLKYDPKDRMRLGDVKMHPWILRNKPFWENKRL

Variants of: B1
Details: with aurk_yeast IPL1, P38991

effect of a mutation on the interaction	Variant
disrupting interaction	MFGDRRKAGGLNLNGRAAIAITPTKRFTDYTGSTSVRKTDARPALSQPRVALFNTKNSSVAPRDVKSLVSLNGSKIYNFLVEYESSDAPSEQLIMKPRGKNDFIACFELIYQHLSKDYEFPRHERIEEEVSQIFKGLGYPYPLKNSYYQPMGSSHGYPHLLDALSWLIDIIRINSAVSEDTQNILFGDFMEQGKAQEKTLNYAWMTSTFRDYTNDRKAAENPSSSYWDDTKHRLRKYFEQSNEFEDMTKTAASALEMLNYECDEIEADKGNEASLKEEISRIRDDIRKAKDYLEQNLHVKQHMEKELAMVKSEQEEKISENEKVQKMVDDLKNKIELQKQIHGLTGKEVRQMNLDNNKDKEVVLEIQSELDRLSKETWKLKDEDFFKEQKSKFIHLAEQIMKILSGLNIQMNLEPLRAPTNERDLKDYWETLNKIWVPEISRQLHQRKLELETEQSRFSNKAVTAEERIQIQSETLCEAKKNEAREERIRRNERDSWKDARKHIEQRYEQLLNEKEVLLKQMKLDGSLEKEIEDETARMSATGEEHIQKRSQLEAGIRQILDLMVVEIAEIENKKIGFHVQCAGIEKAVL [T8A;S18A;S44A;S51A]
